Measured values from the DeepSol protein solubility set.

Test: soluble on expression in E. coli; label from the status in PepcDB or PDB records

Sequence	soluble on expression in E. coli
MKITVIGAGNVGATTAFRLAEKQLARELVLLDVVEGIPQGKALDMYESGPVGLFDTKVTGSNDYADTANSDIVIITAGLPRKPGMTREDLLMKNAGIVKEVTDNIMKHSKNPIIIVVSNPLDIMTHVAWVRSGLPKERVIGMAGVLDAARFRSFIAMELGVSMQDINACVLGGHGDAMVPVVKYTTVAGIPISDLLPAETIDKLVERTRNGGAEIVEHLKQGSAFYAPASSVVEMVESIVLDRKRVLPCAVGLEGQYGIDKTFVGVPVKLGRNGVEQIYEINLDQADLDLLQKSAKIVDENCKMLESTIG	soluble
MGSDKIHHHHHHMKMNHLDIAKEALVAQAQAVAKLADRLDGQFQSAVDLILACEGRTVVCGMGKSGLIGKKMVATFASTGTPSFFLHPAEAFHGDLGMLKPVDVLVLISYSGETEELIKLIPSLKSFGNKFIAMTGSGNSTLAKHADIWLDISVDREVCPNNLAPTTSTLATMAMGDALAVALITANQFKPMDFARYHPGGSLGRKLLTRVADVMHSPAPIVSPASSFQDCLLMMTQSRLGLAMVMDGNELVGIVTDGDLRRALLKNNQVIHASVTEFMTLNPHTIPADCRVSVAEAYMLENKIRALAVVDDCGAIVGVVEIFDGNPVA	not soluble
GSFTMSYCRQEGKDRIIFVTKEDHETPSSAELVADDPNDPYEEHGLILPNGNINWNCPCLGGMASGPCGEQFKSAFSCFHYSTEEIKGSDCVDQFRAMQECMQKYPDLYPQEDEDEEEEREKKPAEQAEETAPIEATATKEEEGSS	soluble
RGSHMCDAFVGTWKLVSSENFDDYMKEVGVGFATRKVAGMAKPNMIISVNGDVITIKSESTFKNTEISFILGQEFDEVTADDRKVKSTITLDGGVLVHVQKWDGKSTTIKRKREDDKLVVECVMKGVTSTRVYERA	soluble
SIRLPAHLRLQPIYWSRDDVAQWLKWAENEFSLRPIDSNTFEMNGKALLLLTKEDFRYRSPHSGDELYELLQHILKQRDHHHHHHHRHD	soluble
EKEKKNVFMRTFEAISRNFSEIFAKLSPGGSARLILENPEDPFSGGLEIEAKPAGKDVKRIEAMSGGEKALTALAFVFAIQKFKPAPFYLFDEIDAHLDDANVKRVADLIKESSKESQFIVITLRDVMMANADKIIGVSMRDGVSKVVSLSLEKAMKILEEIRKKQGWEHGN	soluble
MGSDKIHHHHHHLTVPKKLLLSDLLKHNVRCENGIDHGPVITPWMHPPVHRILGFISRPSNLRLEREVWRLDQLKGINQQEVYVKGVCSVSDEQTLDRFPTLMNANVFNKSGQKIGLIADFLFEPKKGNIQYYLVSRSNPLIPGTSRWLLSIDQIIDKQPGSISCDIETFEDLPIQKASLKEEFLSKSRKWKAQFQDLTYNASDKLEGWIDDQISESDNDSYEMLNDDPSYDDWIDNLDIDSSEEFNRMNKSKKNTNSTNERDLDPWI	not soluble
MSLSNDIELTIDIELQSYLTSLFEGNAGAAIIMNVNDGSILAAGSFPEYDLNPFVTGISFKDWDELSNSLDHPFTNKLINGYYPPGSVVKMGVGLSFLNSKNISPSTHYVCNGSIELGGRFFRCWNRSGHGPVDLKHAIKYSCDVYFYNGSLQVGIDQISETLSRIGFGVKTGVDLPSEFVGTLPSKEWKMQRYRQSWFQGDTLNTAIGQGNFLATPMQIARYTAQIAKSGEVIPHFLKSIENNNTTIENQMDENKKEIFTLFEKSQLPYIRDAMYAVANEQGGTSYRYLHNLDVKVAAKTGTAQVVGFSQTDKNRVDEKQFEYYTRSHAWLTSYAPYSKPKYVVTVLLEHGGRNITSGATVAKIYQKMIELGYFKEGHHHHHH	not soluble
SEKLAASTEPQGPRPVLGRESVQVPDDQDFRSFRSECEAEVGWNLTYSRAGVSVWVQAVEMDRTLHKIKCRMECCDVPAETLYDVLHDIEYRKKWDSNVIETFDIARLTVNADVGYYSWRCPKPLKNRDVITLRSWLPMGADYIIMNYSVKHPKYPPRKDLVRAVSIQTGYLIQSTGPKSCVITYLAQVDPKGSLPKWVVNKSSQFLAPKAMKKMYKACLKYPEWKQKHLPHFKPWLHPEQSPLPSLALSELSVQHADSLENIDESAVAESREERMGGAGGEGSDDDTSLT	soluble
MTKLFLPNTQATQQLGITLGKNLTAGSVILLEGDLGAGKTTLVQGIGKGLGINESIVSPTFTLINEYIEGRIPLYHLDLYRLKPQEVTGLNLESYWEGIEVTPGIVAIEWAERMPYLPDSYFRVCLKSGEDGDRQLEITAVNCQMIDNLISS	not soluble
MPRRALGWTAEVLKRLHGINYPITKDTLREKLAGMSIRGVPVERVIDEIEVDKFDTPRDVLHYIAEAVHKLEERGEIPTETRKGIRWAAEVLKRIHGEHFPMDKQKLKEKLAGLYWRGVPIEKVIDAMEVEQVESPADLLHQLSIAIKKLEEQGEVA	not soluble
GQGVYTYEDGGVLQGTYVDGELNGPAQEYDTDGRLIFKGQYKDNIRHGVCWIYYPDGGSLVGEVNEDGEMTGEKIAYVYPDERTALYGKFIDGEMIEGKLATLMSTEEGRPHFELMPGNSVYHFDKSTSSCISTNALLPDPYESERVYVAESLISSAGEGLFSKVAVGPNTVMSFYNGVRITHQEVDSRDWALNGNTLSLDEETVIDVPEPYNHVSKYCASLGHKANHSFTPNCIYDMFVHPRFGPIKCIRTLRAVEADEELTVAYGYDHSPPGKSGPEAPEWYQVELKAFQATQQK	soluble
GSLLKPARFMCLPCGIAFSSPSTLEAHQAYYCSHRI	soluble
MGSDKIHHHHHHMTLEIAQKRTIKLLKSSTPKEKLNKFVKGYVPTHYKRLSISMEKAIELAIIGATESLAYYGDRLYFTQALLMGAVVSGEYDNIIVVTPSQYGKSWLSSRIAVWLADHNRRCYVAGGKKDTTDIIMQHVTDTLQTVDESIARKLLEPVDKLERLQTGLSKRKISFSGGGSIEGISLGEHFKGNKSGNQAIGRGGDYIIDESAFVSNETYAELGRRNFANVDGKNYLSFEISNPHNKGRFYDKLTQENIPKGMLVVWADVRTAFEEDRVKSIEQVISSEFFQNKSTCQRYFLCELPDENEDGMFGTPQTEEEHTEKNWEYFLGVDSAYKGKDKIKATLSALDAQGQVHVIDTIEIEKGDWQDGVTSKKIITQLLMIIEHFEVKGVCVDVGYGVYIVEGLAHINGDFELHGINFGAGTTKERVEKNHYSAKYGANKRAEMHIDLQENIDNRNIFFTEKVYEEVIDELVLVSSKIKSNGKTAIVPKEEIKAKLGHSPDTLDSVLLSLHAIILYKLNERFYIYS	not soluble
MTITSFGPANRIARTAETHPLTWRLRDDGEPVWLDEYQTKDGYAAARKALTQQAPDDIVQSVKDSGLKGRGGAGFPTGVKWGLMPKDESMNIRYLLCNADEMEPNTWKDRMLMEQLPHLLIEGMLISARALKAYRGYIFLRGEYVTAAKHLNRAVAEAKAAGLLGKNILGTGFDFELFVHTGAGRYICGEETALINSLEGRRANPRSKPPFPAAVGVWGKPTCVNNVETLCNVPAIVNNGNDWYKSLAREGSEDHGTKLMGFSGKVKNPGLWELPFGVQARELFEDYAGGMRDGFTLKCWQPGGAGTGFLLPEHLDAQMYAGGIAKVGTRMGTGLAMAVDDSVNMVSLLRNMEEFFAQESCGFCTPCRDGLPWSVKILRAIENGHGQPGDIETLLGLVNFLGPGKTFCAHAPGAVEPLGSAIKYFRSEFEAGIAPASAAMLVPGKSPTVVGALEHHHHHH	not soluble
VPRIAEVRDAAEPSSEEQRARHVRMLEAAIELATEKELARVQMHEVAKRAGVAIGTLYRYFPSKTHLFVAVMVDQIDRMGVGFKKSAPPGESPQDAVYNVLVRATRGLLRRPALSTAMIQSTSTANVASVPDAGKVDRAFRQIMLDAAGIEHPTEEDLTALRLLVQLWFGVIQSCLNGRVSIPDAESDIRRACDLLLVNLSHR	soluble
MAQPSTTYKFELNLTDLDRGVYESVKQTIARHPSETEERMTVRLLAYAFWYNEQLAFGRGLSDVDEPALWEKSLDDRVLHWIEVGQPDADRLTWCSRRTERTSLLAYGSLRVWEGKVIPAIKNLKNVNIAAVPQDVLEVLAKDMPRVIKWDVMISEGTVFVTDDRGQHEVQLQWLTGERG	soluble
YIKYFNDKTIDEELERDKRVTWIVEFFANWSNDCQSFAPIYADLSLKYNCTGLNFGKVDVGRYTDVSTRYKVSTSPLTKQLPTLILFQGGKEAMRRPQIDKKGRAVSWTFSEENVIREFNLNEL	soluble
MKYFLPLDVSLASAYLKATMSFKDPPTLQQLARRSLLKDEALTISALLNLPVQLFPPLFKDAFTSRQRKILSLMVAAWPFPVLPVGALGGIDHLETLKAVLDGLDLLMSQKDRPRWNLQVLDLGNAHQDFWDGWAGLLHEVCSQDVFGKNQPVGNHPIPGGKQTITIKMNLSLKYCRHSKYLNYLHWWAEQRKDGIQVICEKLEFTGPHSSIQELAIKSIHWDIYNLALIASCLGQMKNLQKLILMNIRRPPDLADLQEAHIVTEIFSEFSKLHKVHYLHVNNVYFLKERLDQMLRCFERPLETLAITHCRLSELDMRYLSQCPSIHQLKYLDMSYTTFKPSSHRFLGSLLERLTATLQTLKLECFHLTDFQIRDLLPGLSQCSQLTEVDIAMNEFSVVSLKKLLKHTANLTQLTLEKYPAPVEVYDDGHSVISDRFVQLCSELMNTLKGVRQAKQVYFVSMPCLRNYEFLIYNLKGLDSSEQLRRRGLSWALINGEQVSRDSLQL	not soluble
GTEDLYFQSHMTIAVTGSIATDHLMRFPGRFSEQLLPEHLHKVSLSFLVDDLVMHRGGVAGNMAFAIGVLGGEVALVGAAGADFADYRDWLKARGVNCDHVLISETAHTARFTCTTDVDMAQIASFYPGAMSEARNIKLADVVSAIGKPELVIIGANDPEAMFLHTEECRKLGLAFAADPSQQLARLSGEEIRRLVNGAAYLFTNDYEWDLLLSKTGWSEADVMAQIDLRVTTLGPKGVDLVEPDGTTIHVGVVPETSQTDPTGVGDAFRAGFLTGRSAGLGLERSAQLGSLVAVLVLESTGTQEWQWDYEAAASRLAGAYGEHAAAEIVAVLA	soluble
MSGLQGKIADAVKARGYQIMTSPDKAYYWIQANVLKADKMDLRESQGWLSRGYEGAAVGAALGGGITAYNTGSAGTTLGVGLATGLIGMAADAMVEDINYTMITDVQIAERTRTSVRTDNVAALRQGTSGSKIQTSTETGNQHKYQTRVVSSANQVNLKFEEAKPHLEDQLAKSIANIL	not soluble
MAFRVSVRLARDTFCLSDTVEGSVAVDVEGTSHDVAAAAPSAVRVALRAVEEAGKRHAIEHMALVTTVAGPSTAHEEAAAAALRESVNRFTTEAARRHPLLGVPVSTDSTMLVEGAASEHYTYSAGAGAASNPGGVTSETATSPPQRWEAGGHYVYPFALQLPPWLPPSYYYKPSAVKSHMSMRYTVAAFVVCGVEEADVDVVPREFRLQMTVLVPCTPLPAKAWRGSSCTSDGGAEGADKRGTCASAPLLSPVRFLLPAEIPQLLERLPAAQLVDFTVLSALPKRELQQCVERVSISPPFREKLTYHIYKYSLVLRGLLRNKPYTAVDVCITYDSGAAVLLCGRQQSVVRGGVALGLAAPHGNDSGDAPAALSSAGSGVAPGGLTVMGTVVGGEYSRAPRIHTDNHGMAPSPLGKRARGRQSPAAADPHTGDSANSLWRDGEGAGGSQLSALSACTEPAINGALRLHVRVRTGSVAVSKVRVKLLERVRCTSAPATQPNDVYTLATYTHSEKIHANTSTEFPIELALPKQFRHIAADNEKYPPPAGITTAAVHTTTWLQITFPSLHAVSEAQLAENVVLVGEDVDLTDTVPFLPCACPVRTL	not soluble
PEGPEIRRAADNLEAAIKGKPLTDVWFAFPQLKTYQSQLIGQHVTHVETRGKALLTHFSNDLTLYSHNQLYGVWRVVDTGEEPQTTRVLRVKLQTADKTILLYSASDIEMLRPEQLTTHPFLQRVGPDVLDPNLTPEVVKERLLSPRFRNRQFAGLLLDQAFLAGLGNYLRVEILWQVGLTGNHKAKDLNAAQLDALAHALLEIPRFSYATRGQVDENKHHGALFRFKVFHRDGEPCERCGSIIEKTTLSSRPFYWCPGCQH	soluble
